B1: MTMR15 (parent)
chain: FSPDFTLRNTLKSTSEDSLVKQEC

Variants of: B1
Assay: protein stability index of a GFP-peptide fusion (GPS, HEK-293T) (PSI 1-6); higher = more stable
Conditions: c terminus: a fixed tail appended
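Also: lentivirally expressed fusions sorted by FACS into six bins by GFP to DsRed ratio, PSI derived from sequencing read proportions per bin multiplied by bin number.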

Row | Variant | protein stability index
1 | FSPDFTLRNTLKYTSEDSLVKQEC [S13Y] | 2.35
2 | FSPDFTLRNTLKNTSEDSLVKQEC [S13N] | 2.69
3 | FSPDFTLRNTLKDTSEDSLVKQEC [S13D] | 2.02
4 | FSPDFTLRNTLKCTSEDSLVKQEC [S13C] | 2.08
5 | FSPDFTLRNTLKMTSEDSLVKQEC [S13M] | 2.02
6 | FSPDFTLRNTLKKTSEDSLVKQEC [S13K] | 1.58
7 | FSPDFTLRNTLKQTSEDSLVKQEC [S13Q] | 2.31
8 | FSPDFTLRNTLKPTSEDSLVKQEC [S13P] | 2.12
9 | FSPDFTLRNTLKWTSEDSLVKQEC [S13W] | 2.66
10 | FSPDFTLRNTLKLTSEDSLVKQEC [S13L] | 1.83
11 | FSPDFTLRNTLKITSEDSLVKQEC [S13I] | 2.56
12 | FSPDFTLRNTLKGTSEDSLVKQEC [S13G] | 1.81
13 | FSPDFTLRNTLKETSEDSLVKQEC [S13E] | 2.11
14 | FSPDFTLRNTLKSTSEDSEVKQEC [L19E] | 2.1
15 | FSPDFTLRNTLKSTSEDSAVKQEC [L19A] | 1.7
16 | FSPDFTLRNTLKSTSEDSFVKQEC [L19F] | 2.14
17 | FSPDFTLRNTLKSTSEDSDVKQEC [L19D] | 2.37
18 | FSPDFTLRNTLKSTSEDSCVKQEC [L19C] | 2.15
19 | FSPDFTLRNTLKSTFEDSLVKQEC [S15F] | 2.63
20 | FSPDFTLRNTLKSTLEDSLVKQEC [S15L] | 1.96
21 | FSPDFTLRNTLKSTMEDSLVKQEC [S15M] | 1.99
22 | FSPDFTLRNTLKSTREDSLVKQEC [S15R] | 2.34
23 | FSPDFTLRNTLKSTGEDSLVKQEC [S15G] | 2.33
24 | FSPDFTLRNTLKSTWEDSLVKQEC [S15W] | 2.02

Row | Variant | protein stability index
25 | FSPDFTLRNTLKSTQEDSLVKQEC [S15Q] | 1.84
26 | FSPDFTLRNTLKSTKEDSLVKQEC [S15K] | 1.73
27 | FSPDFTLRNTLKSTYEDSLVKQEC [S15Y] | 1.83
28 | FSPDFTLRNTLKSTPEDSLVKQEC [S15P] | 1.83
29 | FSPDFTLRNTLKSTCEDSLVKQEC [S15C] | 2.71
30 | FSPDFTLRNTLKSTIEDSLVKQEC [S15I] | 1.73
31 | FSPDFTLRNTLKSTHEDSLVKQEC [S15H] | 1.93
32 | FSPDFTLRNTLKSTDEDSLVKQEC [S15D] | 1.95
33 | FSPDFTLRNTLKSTNEDSLVKQEC [S15N] | 1.43
34 | FSPDFTLRNTLKSTAEDSLVKQEC [S15A] | 1.64
35 | FSPDFTLRNTLKSTTEDSLVKQEC [S15T] | 1.85
36 | FSPDFTLRNTLKSTVEDSLVKQEC [S15V] | 1.48
37 | FSPDFTLRNTLKSTEEDSLVKQEC [S15E] | 1.82
38 | FSPDFTLRNTLKSTSEDALVKQEC [S18A] | 1.75
39 | FSPDFTLRNTLKSTSEDYLVKQEC [S18Y] | 2.41
40 | FSPDFTLRNTLKSTSEDVLVKQEC [S18V] | 1.84
41 | FSPDFTLRNTLKSTSEDCLVKQEC [S18C] | 1.79
42 | FSPDFTLRNTLKSTSEDHLVKQEC [S18H] | 1.92
43 | FSPDFTLRNTLKSTSEDELVKQEC [S18E] | 2.02
44 | FSPDFTLRNTLKSTSEDRLVKQEC [S18R] | 2.3
45 | FSPDFTLRNTLKSTSEDILVKQEC [S18I] | 3.61
46 | FSPDFTLRNTLKSTSEDLLVKQEC [S18L] | 2.48
47 | FSPDFTLRNTLKSTSEDMLVKQEC [S18M] | 2.37
48 | FSPDFTLRNTLKSTSEDTLVKQEC [S18T] | 2.21

Row | Variant | protein stability index
49 | FSPDFTLRNTLKSTSEDNLVKQEC [S18N] | 1.57
50 | FSPDFTLRNTLKSTSEDGLVKQEC [S18G] | 1.76
51 | FSPDFTLRNTLKSTSEDDLVKQEC [S18D] | 1.76
52 | FSPDFTLRNTLKSTSEDPLVKQEC [S18P] | 2.05
53 | FSPDFTLRNTLKSTSEDFLVKQEC [S18F] | 1.87
54 | FSPDFTLRNTLKSTSEDQLVKQEC [S18Q] | 2.01
55 | FSPDFTLRNTLKSTSEDWLVKQEC [S18W] | 1.75
56 | FSPDFTLRNTLKSTSEDKLVKQEC [S18K] | 2.17
57 | FSPDFTLRNTLVSTSEDSLVKQEC [K12V] | 2.14
58 | FSPDFTLRNTLQSTSEDSLVKQEC [K12Q] | 1.92
59 | FSPDFTLRNTLASTSEDSLVKQEC [K12A] | 1.79
60 | FSPDFTLRNTLCSTSEDSLVKQEC [K12C] | 2.34
61 | FSPDFTLRNTLWSTSEDSLVKQEC [K12W] | 3.33
62 | FSPDFTLRNTLISTSEDSLVKQEC [K12I] | 2.6
63 | FSPDFTLRNTLLSTSEDSLVKQEC [K12L] | 2.28
64 | FSPDFTLRNTLYSTSEDSLVKQEC [K12Y] | 2.38
65 | FSPDFTLRNTLFSTSEDSLVKQEC [K12F] | 2.03
66 | FSPDFTLRNTLESTSEDSLVKQEC [K12E] | 2.67
67 | FSPDFTLRNTLSSTSEDSLVKQEC [K12S] | 2.04
68 | FSPDFTLRNTLHSTSEDSLVKQEC [K12H] | 1.71
69 | FSPDFTLRNTLMSTSEDSLVKQEC [K12M] | 1.81
70 | FSPDFTLRNTLDSTSEDSLVKQEC [K12D] | 2.27
71 | FSPDFTLRNTLRSTSEDSLVKQEC [K12R] | 1.71
72 | FSPDFTLRNTLNSTSEDSLVKQEC [K12N] | 1.41

Row | Variant | protein stability index
73 | FSPDFTLRNTLTSTSEDSLVKQEC [K12T] | 1.67
74 | FSPDFTLRNTLPSTSEDSLVKQEC [K12P] | 1.77
75 | FSPDFTLRNTLGSTSEDSLVKQEC [K12G] | 2.24
76 | FSPDFTLRNTLKSFSEDSLVKQEC [T14F] | 2.82
77 | FSPDFTLRNTLKSHSEDSLVKQEC [T14H] | 1.96
78 | FSPDFTLRNTLKSVSEDSLVKQEC [T14V] | 2.43
79 | FSPDFTLRNTLKSMSEDSLVKQEC [T14M] | 2.05
80 | FSPDFTLRNTLKSLSEDSLVKQEC [T14L] | 2
81 | FSPDFTLRNTLKSQSEDSLVKQEC [T14Q] | 2.31
82 | FSPDFTLRNTLKSASEDSLVKQEC [T14A] | 1.54
83 | FSPDFTLRNTLKSPSEDSLVKQEC [T14P] | 1.69
84 | FSPDFTLRNTLKSISEDSLVKQEC [T14I] | 1.62
85 | FSPDFTLRNTLKSDSEDSLVKQEC [T14D] | 2.1
86 | FSPDFTLRNTLKSSSEDSLVKQEC [T14S] | 2.1
87 | FSPDFTLRNTLKSYSEDSLVKQEC [T14Y] | 1.72
88 | FSPDFTLRNTLKSNSEDSLVKQEC [T14N] | 2.11
89 | FSPDFTLRNTLKSGSEDSLVKQEC [T14G] | 2.49
90 | FSPDFTLRNTLKSKSEDSLVKQEC [T14K] | 1.73
91 | FSPDFTLRNTLKSCSEDSLVKQEC [T14C] | 2.78
92 | FSPDFTLRNTLKSRSEDSLVKQEC [T14R] | 1.77
93 | FSPDFTLRNTLKSWSEDSLVKQEC [T14W] | 1.58
94 | FSPDFTLRNTLKSESEDSLVKQEC [T14E] | 2.64

From the supplement of paper PMC10567573
